Earlier results, collected in publication PMC6003685.

Target: PspF 1-265 (Escherichia coli) (UniProt P37344)

PspA 1-144 (from UniProt P0AFM6)
Kd: 1000 nM
